Experimental data reported in PMC3085015.

Columns and labels:
F14Bpa-Rop [1] = molecular target: F14Bpa-Rop (UniProt P03051); test: SEC
F14Bpa-Rop [2] = molecular target: F14Bpa-Rop (UniProt P03051); test: cross-linking + SEC
F14Bpa-Rop [3] = molecular target: F14Bpa-Rop (UniProt P03051); test: cross-linking
F14Bpa-Rop [4] = molecular target: F14Bpa-Rop (UniProt P03051); test: cross-linking; remark: listed apart in the source
wild type Rop = wild type Rop (UniProt P03051); test: SEC

| Substance | stoichiometry N (F14Bpa-Rop [1]) | stoichiometry N (F14Bpa-Rop [2]) | stoichiometry N (F14Bpa-Rop [3]) | stoichiometry N (F14Bpa-Rop [4]) | stoichiometry N (wild type Rop) |
| --- | --- | --- | --- | --- | --- |
| F14Bpa-Rop (from UniProt P03051 1-63) (natural protein) | 2 | 4 | 4 | 4 | – |
| wild type Rop (from UniProt P03051 1-63) (natural protein) | – | – | – | – | 2 |
